T1: B7H3 (UniProt Q5ZPR3 29-466, limits assumed)
T1 sequence (looked up): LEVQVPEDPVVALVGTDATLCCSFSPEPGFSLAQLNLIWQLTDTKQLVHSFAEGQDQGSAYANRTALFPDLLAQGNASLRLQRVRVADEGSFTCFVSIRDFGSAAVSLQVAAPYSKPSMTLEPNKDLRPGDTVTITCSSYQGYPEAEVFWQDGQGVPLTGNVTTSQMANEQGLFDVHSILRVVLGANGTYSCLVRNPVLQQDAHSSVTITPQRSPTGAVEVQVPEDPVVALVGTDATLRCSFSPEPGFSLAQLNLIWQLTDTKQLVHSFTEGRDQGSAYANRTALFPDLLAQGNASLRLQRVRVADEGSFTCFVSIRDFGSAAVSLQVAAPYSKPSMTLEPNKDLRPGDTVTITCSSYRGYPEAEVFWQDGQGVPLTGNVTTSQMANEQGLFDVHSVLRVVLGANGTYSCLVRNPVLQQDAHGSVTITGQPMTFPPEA

B1: Ly1630 (antibody, V domains shown)
VH: QVQLVQSGAEVKKPGASVKVSCKASGYTFAGFEMHWVRQAPGQGLEWMGAIDPKTGGTDYNQKFKDRVTMTRDTSISTAYMELSRLRSDDTAVYYCARDLGYFDVWGQGTLVTVSS
VL: DIQMTQSPSSLSASVGDRVTITCRASQDIRSNLNWYQQKPGGAVKLLIYYTSRLHSGVPSRFSGSGSGTDYTLTISSLQPEDFATYFCQQSEKLPRTFGGGTKVEIR
notes: Parent mAb; also called Anti-CD137 Ly1630; parent anti-CD137 mAb
B2: Ly2118 (other)
chain 1: QVQLVQSGAEVKKPGASVKVSCKASGYTFTSYVMHWVRQKPGQGLEWIGYINPYNEGTESTDKFKGRATMTSDKSTSTVYMELSSLRSEDTAVYYCASIYYGYEGTYFGVWGQGTLVTVSSASTKGPSVFPLAPSSKSTSGGTAALGCLVKDYFPEPVTVSWNSGALTSGVHTFPAVLQSSGLYSLSSVVTVPSSSLGTQTYICNVNHKPSNTKVDKKVEPKSCGGGGSGGGGSGGGGSGGGGSQVQLVQSGAEVKKPGASVKVSCKASGYTFAGFEMHWVRQAPGQGLEWMGAIDPKTGGTDYNQKFKDRVTMTRDTSISTAYMELSRLRSDDTAVYYCARDLGYFDVWGQGTLVTVSSGGGGSDKTHTCPPCPAPEAAGPSVFLFPPKPKDTLMISRTPEVTCVVVDVSHEDPEVKFNWYVDGVEVHNAKTKPREEQYNSTYRVVSVLTVLHQDWLNGKEYKCKVSNKALPAPIEKTISKAKGQPREPQVYTLPPSREEMTKNQVSLWCLVKGFYPSDIAVEWESNGQPENNYKTTPPVLDSDGSFFLYSKLTVDKSRWQQGNVFSCSVMHEALHNHYTQKSLSLSPGGGGGSGGGGSGGGGSGGGGSQVTLKESGPALVKPTQTLTLTCTFSGFSLSTSGTCVSWIRQPPGKALEWLATICWEDSKGYNPSLKSRLTISKDTSKNQAVLTMTNMDPVDTATYYCARREDSGYFWFPYWGQGTLVTVSS
chain 2: QVQLVQSGAEVKKPGASVKVSCKASGYTFTSYVMHWVRQKPGQGLEWIGYINPYNEGTESTDKFKGRATMTSDKSTSTVYMELSSLRSEDTAVYYCASIYYGYEGTYFGVWGQGTLVTVSSASTKGPSVFPLAPSSKSTSGGTAALGCLVKDYFPEPVTVSWNSGALTSGVHTFPAVLQSSGLYSLSSVVTVPSSSLGTQTYICNVNHKPSNTKVDKKVEPKSCGGGGSGGGGSGGGGSGGGGSDIQMTQSPSSLSASVGDRVTITCRASQDIRSNLNWYQQKPGGAVKLLIYYTSRLHSGVPSRFSGSGSGTDYTLTISSLQPEDFATYFCQQSEKLPRTFGGGTKVEIRGGGGSDKTHTCPPCPAPEAAGPSVFLFPPKPKDTLMISRTPEVTCVVVDVSHEDPEVKFNWYVDGVEVHNAKTKPREEQYNSTYRVVSVLTVLHQDWLNGKEYKCKVSNKALPAPIEKTISKAKGQPREPQVYTLPPSREEMTKNQVSLSCAVKGFYPSDIAVEWESNGQPENNYKTTPPVLDSDGSFFLVSKLTVDKSRWQQGNVFSCSVMHEALHNRFTQKSLSLSPGGGGGSGGGGSGGGGSGGGGSNIQMTQSPSSLSASVGDRVTITCKAGQNVNNYLAWYQQKPGKAPKVLIFNANSLQTGVPSRFSGSGSGTDFTLTISSLQPEDFATYYCQQYNSWPTFGGGTKVEIK
light: EIVLTQSPATLSLSPGERATLSCRASSSVSYMHWYQQKPGQAPRPWIYATSNLASGIPARFSGSRSGTDYTLTISSLEPEDFAVYYCQQWSSNTLTFGGGTKVEIKRTVAAPSVFIFPPSDEQLKSGTASVVCLLNNFYPREAKVQWKVDNALQSGNSQESVTEQDSKDSTYSLSSTLTLSKADYEKHKVYACEVTHQGLSSPVTKSFNRGEC
notes: Tri-specific antibody: B7H3 Fabs, central CD137 Fv, terminal PD-1 Fv
B3: Ly2281 (bispecific antibody)
chain 1: QVTLKESGPALVKPTQTLTLTCTFSGFSLSTSGTCVSWIRQPPGKALEWLATICWEDSKGYNPSLKSRLTISKDTSKNQAVLTMTNMDPVDTATYYCARREDSGYFWFPYWGQGTLVTVSSASTKGPSVFPLAPSSKSTSGGTAALGCLVKDYFPEPVTVSWNSGALTSGVHTFPAVLQSSGLYSLSSVVTVPSSSLGTQTYICNVNHKPSNTKVDKKVEPKSCGGGGSGGGGSGGGGSGGGGSQVQLVQSGAEVKKPGASVKVSCKASGYTFAGFEMHWVRQAPGQGLEWMGAIDPKTGGTDYNQKFKDRVTMTRDTSISTAYMELSRLRSDDTAVYYCARDLGYFDVWGQGTLVTVSSGGGGSDKTHTCPPCPAPEAAGPSVFLFPPKPKDTLMISRTPEVTCVVVDVSHEDPEVKFNWYVDGVEVHNAKTKPREEQYNSTYRVVSVLTVLHQDWLNGKEYKCKVSNKALPAPIEKTISKAKGQPREPQVYTLPPSREEMTKNQVSLWCLVKGFYPSDIAVEWESNGQPENNYKTTPPVLDSDGSFFLYSKLTVDKSRWQQGNVFSCSVMHEALHNHYTQKSLSLSPG
chain 2: QVTLKESGPALVKPTQTLTLTCTFSGFSLSTSGTCVSWIRQPPGKALEWLATICWEDSKGYNPSLKSRLTISKDTSKNQAVLTMTNMDPVDTATYYCARREDSGYFWFPYWGQGTLVTVSSASTKGPSVFPLAPSSKSTSGGTAALGCLVKDYFPEPVTVSWNSGALTSGVHTFPAVLQSSGLYSLSSVVTVPSSSLGTQTYICNVNHKPSNTKVDKKVEPKSCGGGGSGGGGSGGGGSGGGGSDIQMTQSPSSLSASVGDRVTITCRASQDIRSNLNWYQQKPGGAVKLLIYYTSRLHSGVPSRFSGSGSGTDYTLTISSLQPEDFATYFCQQSEKLPRTFGGGTKVEIRGGGGSDKTHTCPPCPAPEAAGPSVFLFPPKPKDTLMISRTPEVTCVVVDVSHEDPEVKFNWYVDGVEVHNAKTKPREEQYNSTYRVVSVLTVLHQDWLNGKEYKCKVSNKALPAPIEKTISKAKGQPREPQVYTLPPSREEMTKNQVSLSCAVKGFYPSDIAVEWESNGQPENNYKTTPPVLDSDGSFFLVSKLTVDKSRWQQGNVFSCSVMHEALHNRFTQKSLSLSPG
light: NIQMTQSPSSLSASVGDRVTITCKAGQNVNNYLAWYQQKPGKAPKVLIFNANSLQTGVPSRFSGSGSGTDFTLTISSLQPEDFATYYCQQYNSWPTFGGGTKVEIKRTVAAPSVFIFPPSDEQLKSGTASVVCLLNNFYPREAKVQWKVDNALQSGNSQESVTEQDSKDSTYSLSSTLTLSKADYEKHKVYACEVTHQGLSSPVTKSFNRGEC
notes: PD-1 Fabs, central CD137 Fv
B4: TM383 (antibody, V domains shown)
VH: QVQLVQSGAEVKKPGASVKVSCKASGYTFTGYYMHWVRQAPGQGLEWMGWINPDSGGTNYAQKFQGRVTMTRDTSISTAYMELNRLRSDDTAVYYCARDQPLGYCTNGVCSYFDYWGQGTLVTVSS
VL: DIQMTQSPSSVSASVGDRVTITCRASQGIYSWLAWYQQKPGKAPNLLIYTASTLQSGVPSRFSGSGSGTDFTLTISSLQPEDFATYYCQQANIFPLTFGGGTKVEIK
notes: Parent mAb; also called Anti-CD40 TM383; parent CD40 mAb
B5: Ly2279 (bispecific antibody)
chain 1: not shown
chain 2: QVQLVQSGAEVKKPGASVKVSCKASGYTFTSYVMHWVRQKPGQGLEWIGYINPYNEGTESTDKFKGRATMTSDKSTSTVYMELSSLRSEDTAVYYCASIYYGYEGTYFGVWGQGTLVTVSSASTKGPSVFPLAPSSKSTSGGTAALGCLVKDYFPEPVTVSWNSGALTSGVHTFPAVLQSSGLYSLSSVVTVPSSSLGTQTYICNVNHKPSNTKVDKKVEPKSCGGGGSGGGGSGGGGSGGGGSDIQMTQSPSSVSASVGDRVTITCRASQGIYSWLAWYQQKPGKAPNLLIYTASTLQSGVPSRFSGSGSGTDFTLTISSLQPEDFATYYCQQANIFPLTFGGGTKVEIKGGGGSDKTHTCPPCPAPEAAGPSVFLFPPKPKDTLMISRTPEVTCVVVDVSHEDPEVKFNWYVDGVEVHNAKTKPREEQYNSTYRVVSVLTVLHQDWLNGKEYKCKVSNKALPAPIEKTISKAKGQPREPQVYTLPPSREEMTKNQVSLSCAVKGFYPSDIAVEWESNGQPENNYKTTPPVLDSDGSFFLVSKLTVDKSRWQQGNVFSCSVMHEALHNRFTQKSLSLSPG
light: B2 light
notes: B7H3 Fabs, central CD40 Fv
B6: Ly2434 (bispecific antibody, human IgG1, kappa)
heavy 1: QVQLVQSGAEVKKPGASVKVSCKASGYTFTSYVMHWVRQKPGQGLEWIGYINPYNEGTESTDKFKGRATMTSDKSTSTVYMELSSLRSEDTAVYYCASIYYGYEGTYFGVWGQGTLVTVSSASTKGPSVFPLAPSSKSTSGGTAALGCLVKDYFPEPVTVSWNSGALTSGVHTFPAVLQSSGLYSLSSVVTVPSSSLGTQTYICNVNHKPSNTKVDKKVEPKSCDKTHTCPPCPAPEAAGPSVFLFPPKPKDTLMISRTPEVTCVVVDVSHEDPEVKFNWYVDGVEVHNAKTKPREEQYNSTYRVVSVLTVLHQDWLNGKEYKCKVSNKALPAPIEKTISKAKGQPREPQVYTLPPSREEMTKNQVSLWCLVKGFYPSDIAVEWESNGQPENNYKTTPPVLDSDGSFFLYSKLTVDKSRWQQGNVFSCSVMHEALHNHYTQKSLSLSPGGGGGSGGGGSGGGGSGGGGSEVQLVESGGGLVQPGGSLRLSCAASGFTFTNYGLHWVRQAPGKGLEWVSSISPSGGVTYYRDSVKGRFTISRDNSKNTLYLQMNSLRAEDTAVYYCAKPFLGWGGANWIAHWGQGTLVTVSS
heavy 2: QVQLVQSGAEVKKPGASVKVSCKASGYTFTSYVMHWVRQKPGQGLEWIGYINPYNEGTESTDKFKGRATMTSDKSTSTVYMELSSLRSEDTAVYYCASIYYGYEGTYFGVWGQGTLVTVSSASTKGPSVFPLAPSSKSTSGGTAALGCLVKDYFPEPVTVSWNSGALTSGVHTFPAVLQSSGLYSLSSVVTVPSSSLGTQTYICNVNHKPSNTKVDKKVEPKSCDKTHTCPPCPAPEAAGPSVFLFPPKPKDTLMISRTPEVTCVVVDVSHEDPEVKFNWYVDGVEVHNAKTKPREEQYNSTYRVVSVLTVLHQDWLNGKEYKCKVSNKALPAPIEKTISKAKGQPREPQVYTLPPSREEMTKNQVSLSCAVKGFYPSDIAVEWESNGQPENNYKTTPPVLDSDGSFFLVSKLTVDKSRWQQGNVFSCSVMHEALHNRFTQKSLSLSPGGGGGSGGGGSGGGGSGGGGSDIQMTQSPSSLSASVGDRVTITCLASEDISNDLAWYQQKPGKAPKLLIYFVDRLLDGVPSRFSGSGSGTDFTLTISSLQPEDFATYYCQQSYKYPPTFGQGTKLEIK
light: B2 light
notes: B7H3 Fabs x terminal CD40 Fv (TM559)

What was measured:
CD137 = biological target: T2, CD137 (human, UniProt Q07011 24-186); test: CD137 binding (method not given)
T2 construct: In the reporter assay it is whole, on GS-H2-huCD137 cells; also called 4-1BB; huCD137

CD40 [1] = biological target: T3, CD40 (human, UniProt P25942 21-193); test: CD40 binding (method not given)
T3 construct: In the reporter assay it is whole, on GS-H2-huCD40 cells; also called huCD40
T3 sequence (P25942 21-193 limits assumed): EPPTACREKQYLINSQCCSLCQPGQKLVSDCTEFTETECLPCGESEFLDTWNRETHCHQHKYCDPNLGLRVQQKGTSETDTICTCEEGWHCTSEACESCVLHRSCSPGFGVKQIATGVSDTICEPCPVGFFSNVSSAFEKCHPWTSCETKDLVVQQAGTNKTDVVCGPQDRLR

CD40 [2] = biological target: CD40 (UniProt P25942 21-193, limits assumed); test: FCM or ELISA, graded
Sequence of CD40 (UniProt P25942 21-193, limits assumed) (P25942 21-193 limits assumed): as above

B7H3 = biological target: T1, B7H3; test: FCM or ELISA, graded

| Binder | EC50 (CD137) | EC50 (CD40 [1]) | further results |
| --- | --- | --- | --- |
| B1 | 0.08 µg/mL |  |  |
| B2 | 1.78 µg/mL |  |  |
| B3 | 2.56 µg/mL |  |  |
| B4 |  | 0.48 µg/mL |  |
| B5 |  | 1.49 µg/mL |  |
| B6 |  |  | binding result (CD40 [2]): binds; binding result (B7H3): binds |

Source: US20250388669A1 (published 2025)
